Paper PMC3428313

Key:
[1] = system: C/EBPbeta isoform LAP, P17676-2; assay: competition EMSA; conditions: 20 mM HEPES pH 8.0, 1 mM MgCl2, 60 mM KCl, 0.1 mM EDTA, 15% glycerol, 1 ug poly dI-dC, 8 ug nuclear extract; 30 min room temperature then 15 min 4 C; gel at …
[2] = system: C/EBPbeta isoform LIP (Flag-LIP), P17676-3; assay: competition EMSA; conditions: 20 mM HEPES pH 8.0, 1 mM MgCl2, 60 mM KCl, 0.1 mM EDTA, 15% glycerol, 1 ug poly dI-dC, 8 ug nuclear extract; 30 min room temperature then 15 min 4 C; gel at …
Sequence of C/EBPbeta isoform LIP (Flag-LIP), P17676-3 (P17676 199-345): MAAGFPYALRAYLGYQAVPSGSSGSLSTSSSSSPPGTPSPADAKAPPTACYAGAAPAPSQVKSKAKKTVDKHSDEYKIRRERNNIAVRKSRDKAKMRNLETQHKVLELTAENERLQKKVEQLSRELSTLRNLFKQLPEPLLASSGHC

Sequence of C/EBPbeta isoform LAP, P17676-2 (P17676 24-345): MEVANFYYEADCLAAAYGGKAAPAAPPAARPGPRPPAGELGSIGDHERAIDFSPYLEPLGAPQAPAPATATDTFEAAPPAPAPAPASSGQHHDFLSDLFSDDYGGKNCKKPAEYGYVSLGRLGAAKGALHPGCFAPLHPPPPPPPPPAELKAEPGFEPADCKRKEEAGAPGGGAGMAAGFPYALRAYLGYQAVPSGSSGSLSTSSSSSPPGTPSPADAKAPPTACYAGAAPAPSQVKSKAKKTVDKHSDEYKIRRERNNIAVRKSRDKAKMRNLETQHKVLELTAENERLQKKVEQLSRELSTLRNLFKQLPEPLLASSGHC

Row | Sequence | Kd [1] | Kd [2]
1 | GCTTGCTTGCTTAAAGACCT (double strand) [DS1C/A C/EBP site] | 24.8 10^-7 M | 5.1 10^-7 M
2 | GCTTGCTTGCTTAAAGCCCT (double strand) [DS1 wild-type C/EBP site] | 50 10^-7 M | 17.5 10^-7 M
